Experimental data: patent publication US20230002480A1

Columns and labels:
Assay in all cases: cell-based or functional assay
[1] = biological target: HIV-1 Env of pseudovirus C3347.c11 (clade CRF01_AE) (HIV-1)
[2] = biological target: HIV-1 Env of pseudovirus 235-47 (clade CRF02_AG) (HIV-1)
[3] = biological target: HIV-1 Env of pseudovirus X2088_c9 (clade G) (HIV-1)
[4] = biological target: HIV-1 Env of pseudovirus T251-18 (clade CRF02_AG) (HIV-1)
[5] = biological target: HIV-1 Env of pseudovirus R2184.c04 (clade CRF01_AE) (HIV-1)
[6] = biological target: HIV-1 Env of pseudovirus BJOX025000.01.1 (clade CRF01_AE (T/F)) (HIV-1)
[7] = biological target: MuLV envelope (negative control pseudovirus) (MuLV)
[8] = biological target: HIV-1 Env pseudovirus 0815.v3.c3 (HIV-1)
[9] = biological target: HIV-1 Env pseudovirus R1166.c01 (HIV-1)
[10] = biological target: HIV-1 Env pseudovirus 3103.v3.c10 (HIV-1)
[11] = biological target: HIV-1 Env pseudovirus 6811.v7.c18 (HIV-1)
[12] = biological target: HIV-1 Env pseudovirus 3016.v5.c45 (HIV-1)
[13] = biological target: HIV-1 Env pseudovirus 3301.v1.c24 (HIV-1)
[14] = biological target: HIV-1 Env pseudovirus P0402_c2_11 (HIV-1)
[15] = biological target: HIV-1 Env pseudovirus R3265.c06 (HIV-1)
[16] = biological target: HIV-1 Env pseudovirus T250-4 (HIV-1)
[17] = biological target: HIV-1 Env of pseudovirus ZM214M.PL15 (clade C) (HIV-1)
[18] = biological target: HIV-1 Env of pseudovirus Ce704809221_1B3 (clade C (T/F)) (HIV-1)
[19] = biological target: HIV-1 Env of pseudovirus ZM109F.PB4 (clade C) (HIV-1)
[20] = biological target: HIV-1 Env of pseudovirus CNE17 (clade BC) (HIV-1)
[21] = biological target: HIV-1 Env of pseudovirus CAP45.2.00.G3 (clade C) (HIV-1)
[22] = biological target: HIV-1 Env of pseudovirus THRO4156.18 (clade B) (HIV-1)
[23] = biological target: HIV-1 Env of pseudovirus 7030102001E5(Rev-) (clade C (T/F)) (HIV-1)
[24] = biological target: HIV-1 Env of pseudovirus CNE30 (clade BC) (HIV-1)
[25] = biological target: HIV-1 Env of pseudovirus TRJO4551.58 (clade B) (HIV-1)
[26] = biological target: HIV-1 Env of pseudovirus 1012_11_TC21_3257 (clade B (T/F)) (HIV-1)
[27] = biological target: HIV-1 Env of pseudovirus 62357_14_D3_4589 (clade B (T/F)) (HIV-1)
[28] = biological target: HIV-1 Env of pseudovirus HIV-16055-2.3 (clade C) (HIV-1)
[29] = biological target: HIV-1 Env of pseudovirus 1056_10_TA11_1826 (clade B (T/F)) (HIV-1)
[30] = biological target: HIV-1 Env of pseudovirus Q769.d22 (clade A) (HIV-1)
[31] = biological target: HIV-1 Env of pseudovirus WITO4160.33 (clade B) (HIV-1)
[32] = biological target: HIV-1 Env of pseudovirus 6535.3 (clade B) (HIV-1)

## PG16 (antibody)
[1]
  IC50, titer in TZM.bl cells: 0.008 µg/mL
  IC80, titer in TZM.bl cells: 0.045 µg/mL
[2]
  IC50, titer in TZM.bl cells: 0.092 µg/mL
  IC80, titer in TZM.bl cells: 4.51 µg/mL
[3]
  IC50, titer in TZM.bl cells: > 50 µg/mL
  IC80, titer in TZM.bl cells: > 50 µg/mL
[4]
  IC50, titer in TZM.bl cells: 1.72 µg/mL
  IC80, titer in TZM.bl cells: 44.7 µg/mL
[5]
  IC50, titer in TZM.bl cells: 0.67 µg/mL
  IC80, titer in TZM.bl cells: > 50 µg/mL
[6]
  IC50, titer in TZM.bl cells: 0.071 µg/mL
  IC80, titer in TZM.bl cells: > 50 µg/mL

## N49P6 (antibody)
[7]
  IC50: > 50 µg/mL
  IC80: > 50 µg/mL
  MPI: 0

## N49P9.1 (antibody)
[8]
  IC50: 0.012 µg/mL
  IC80: 0.041 µg/mL
  MPI: 100
[9]
  IC50: 0.073 µg/mL
  IC80: 0.232 µg/mL
  MPI: 100
[10]
  IC50: > 50 µg/mL
  IC80: > 50 µg/mL
  MPI: 45
[11]
  IC50: 0.398 µg/mL
  IC80: 1.76 µg/mL
  MPI: 97
[12]
  IC50: 0.076 µg/mL
  IC80: 0.223 µg/mL
  MPI: 100
[13]
  IC50: 0.059 µg/mL
  IC80: 0.178 µg/mL
  MPI: 100
[14]
  IC50: 0.06 µg/mL
  IC80: 0.163 µg/mL
  MPI: 100
[15]
  IC50: 0.469 µg/mL
  IC80: 1.62 µg/mL
  MPI: 100
[16]
  IC50: > 50 µg/mL
  IC80: > 50 µg/mL
  MPI: 7

## N49P19 (antibody)
[8]
  IC50: 0.176 µg/mL
  IC80: 0.743 µg/mL
  MPI: 100
[9]
  IC50: 0.629 µg/mL
  IC80: 2.69 µg/mL
  MPI: 100
[10]
  IC50: > 50 µg/mL
  IC80: > 50 µg/mL
  MPI: 0
[11]
  IC50: 1.3 µg/mL
  IC80: 4.71 µg/mL
  MPI: 97
[12]
  IC50: > 50 µg/mL
  IC80: > 50 µg/mL
  MPI: 9
[13]
  IC50: 0.302 µg/mL
  IC80: 1.42 µg/mL
  MPI: 98
[14]
  IC50: 0.448 µg/mL
  IC80: 2.63 µg/mL
  MPI: 100
[15]
  IC50: 0.634 µg/mL
  IC80: 2.73 µg/mL
  MPI: 100
[16]
  IC50: > 50 µg/mL
  IC80: > 50 µg/mL
  MPI: 7

## N49P9 (antibody)
[8]
  IC50: 0.02 µg/mL
  IC80: 0.057 µg/mL
  MPI: 100
[9]
  IC50: 0.064 µg/mL
  IC80: 0.223 µg/mL
  MPI: 100
[10]
  IC50: 17.6 µg/mL
  IC80: > 50 µg/mL
  MPI: 55
[11]
  IC50: 0.249 µg/mL
  IC80: 1.2 µg/mL
  MPI: 99
[12]
  IC50: 0.06 µg/mL
  IC80: 0.209 µg/mL
  MPI: 100
[13]
  IC50: 0.072 µg/mL
  MPI: 100
[14]
  IC50: 0.028 µg/mL
  IC80: 0.085 µg/mL
  MPI: 100
[15]
  IC50: 0.135 µg/mL
  IC80: 0.812 µg/mL
  MPI: 100
[16]
  IC50: > 50 µg/mL
  IC80: > 50 µg/mL
  MPI: 25

## N49P7.2 (antibody)
[17]
  IC50: 0.559 µg/mL
  IC80: 4.53 µg/mL
  MPI: 100
[7]
  IC50: > 50 µg/mL
  IC80: > 50 µg/mL
  MPI: 4
[18]
  IC50: 0.874 µg/mL
  IC80: 3.88 µg/mL
  MPI: 100
[19]
  IC50: 0.065 µg/mL
  IC80: 0.321 µg/mL
  MPI: 99
[20]
  IC50: 0.376 µg/mL
  IC80: 1.24 µg/mL
  MPI: 100
[21]
  IC50: 0.162 µg/mL
  IC80: 2.49 µg/mL
  MPI: 95
[22]
  IC50: 6.29 µg/mL
  IC80: 33.3 µg/mL
  MPI: 94
[23]
  IC50: 0.313 µg/mL
  IC80: 1.03 µg/mL
  MPI: 100
[24]
  IC50: 0.362 µg/mL
  IC80: 1.2 µg/mL
  MPI: 100
[25]
  IC50: 0.21 µg/mL
  IC80: 0.673 µg/mL
  MPI: 100
[26]
  IC50: 0.06 µg/mL
  IC80: 0.285 µg/mL
  MPI: 100
[27]
  IC50: 0.03 µg/mL
  IC80: 0.121 µg/mL
  MPI: 100
[28]
  IC50: 0.204 µg/mL
  IC80: 0.721 µg/mL
  MPI: 100
[29]
  IC50: 0.114 µg/mL
  IC80: 0.771 µg/mL
  MPI: 100
[30]
  IC50: 0.029 µg/mL
  IC80: 0.14 µg/mL
  MPI: 100
[31]
  IC50: 0.051 µg/mL
  IC80: 0.215 µg/mL
  MPI: 100
[32]
  IC50: 0.152 µg/mL
  IC80: 0.784 µg/mL
  MPI: 100
